Data reported in US7368293 (ROCKEFELLER UNIVERSITY, dated 2008).

Biological target: the molecule itself
Assay: in vitro translation, gel mobility-shift with 32P APF-1 probe; inferred from heterodimer bands and absence of monomer complexes
Method: Since amino acids in the ligand binding domain of the estrogen receptor are known to be necessary for receptor dimerization and subsequent DNA binding (Kumar & Chambon, 1988; Fawell et al., 1990), we determined whether HNF-4 binds to its recognition site as a monomer or as a dimer. The full length cDNA (Xho I) was co-translated in vitro with either of the two truncated products that bind DNA (PflM I and Hga I) and the products were tested in the mobility-shift assay. When the full length and truncated transcripts were translated together, complexes of intermediate mobility were produced with both the APF-1 probe (lanes 3 and 5, FIG. 5D) and the −151 to −130 TTR probe (not shown).

B1: HNF-4 (hepatocyte nuclear factor 4), full length protein translated in vitro from pf7 cDNA (Xho I-cut template) (receptor)
chain: MDMADYSAALDPAYTTLEFENVQVLTMGNDTSPSEGANLNSSNSLGVSALCAICGDRATGKHYGASSCDGCKGFFRRSVRKNHMYSCRFSRQCVVDKDKRNQCRYCRLKKCFRAGMKKEAVQNERDRISTRRSSYEDISLPSINALLQAEVLSQQITSPISGINGDIRAKRIASITDVCESMKEQLLVLVEWAKYIPAFCELLLDDQVALLRAHAGEHLLLGATKRSMVFKDVLLLGNDYIVPRHCPELAEMSRVSIRILDELVLPFQELQIDDNEYACLKAIIFFDPDAKGLSDPGKIKRLRSQVQVSLEDYINDRQYDSRGRFGELLLLLPTLQSITWQMIEQIQFIKLFGMAKIDNLLQEMLLGGSASDAPHAHHPLHPHLMQEHMGTNVIVANTMPSHLTNGQMSTPETPQPSPPSGSGSESYKLLPGAITTIVKPPSAIPQPTITKQEAI
notes: Translated in rabbit reticulocyte lysate from T3/T7 transcripts of pf7 (rat liver cDNA); also called full length cDNA (Xho I); in vitro synthesized HNF-4
**Q.** Does B1 bind?
**A.** Result: binds
